Assay results: the supplement of paper PMC10065799, “High-throughput profiling of sequence recognition by tyrosine kinases and SH2 domains using bacterial peptide display” (eLife, 2023)

Experiments:
Fyn = Fyn (UniProt P06241); assay: phosphorylation enrichment, bacterial display (enrichment ratio); higher = better substrate or ligand; peptides without Tyr show the background
Fer (mouse) = assay: as above
Hck = Hck (UniProt P08631); assay: as above
FGFR1 = FGFR1 (UniProt P11362); assay: as above
FGFR1, sequence (P11362 whole entry, looked up): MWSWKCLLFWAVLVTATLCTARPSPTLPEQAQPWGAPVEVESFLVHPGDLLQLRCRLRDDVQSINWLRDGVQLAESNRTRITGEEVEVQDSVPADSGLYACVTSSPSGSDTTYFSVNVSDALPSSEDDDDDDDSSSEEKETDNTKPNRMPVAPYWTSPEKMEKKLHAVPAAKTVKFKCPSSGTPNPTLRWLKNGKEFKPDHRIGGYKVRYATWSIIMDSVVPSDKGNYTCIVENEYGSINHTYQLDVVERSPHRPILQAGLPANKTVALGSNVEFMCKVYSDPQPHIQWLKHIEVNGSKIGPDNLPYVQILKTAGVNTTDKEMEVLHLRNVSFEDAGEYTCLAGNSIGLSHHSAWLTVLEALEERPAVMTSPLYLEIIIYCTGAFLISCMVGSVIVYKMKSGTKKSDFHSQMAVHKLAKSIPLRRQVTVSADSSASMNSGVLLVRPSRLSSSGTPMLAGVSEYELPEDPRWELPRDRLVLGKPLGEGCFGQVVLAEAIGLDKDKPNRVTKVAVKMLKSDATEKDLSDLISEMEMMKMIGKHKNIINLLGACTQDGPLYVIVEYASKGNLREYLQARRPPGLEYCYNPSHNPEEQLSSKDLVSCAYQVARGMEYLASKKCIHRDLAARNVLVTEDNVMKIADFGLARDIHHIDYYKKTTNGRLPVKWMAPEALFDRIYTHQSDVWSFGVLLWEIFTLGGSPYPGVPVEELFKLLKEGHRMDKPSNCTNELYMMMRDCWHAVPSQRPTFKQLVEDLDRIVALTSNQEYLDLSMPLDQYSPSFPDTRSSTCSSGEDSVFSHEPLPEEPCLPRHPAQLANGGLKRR

MERTK = MERTK (UniProt Q12866); assay: as above
MERTK, sequence (Q12866 whole entry, looked up): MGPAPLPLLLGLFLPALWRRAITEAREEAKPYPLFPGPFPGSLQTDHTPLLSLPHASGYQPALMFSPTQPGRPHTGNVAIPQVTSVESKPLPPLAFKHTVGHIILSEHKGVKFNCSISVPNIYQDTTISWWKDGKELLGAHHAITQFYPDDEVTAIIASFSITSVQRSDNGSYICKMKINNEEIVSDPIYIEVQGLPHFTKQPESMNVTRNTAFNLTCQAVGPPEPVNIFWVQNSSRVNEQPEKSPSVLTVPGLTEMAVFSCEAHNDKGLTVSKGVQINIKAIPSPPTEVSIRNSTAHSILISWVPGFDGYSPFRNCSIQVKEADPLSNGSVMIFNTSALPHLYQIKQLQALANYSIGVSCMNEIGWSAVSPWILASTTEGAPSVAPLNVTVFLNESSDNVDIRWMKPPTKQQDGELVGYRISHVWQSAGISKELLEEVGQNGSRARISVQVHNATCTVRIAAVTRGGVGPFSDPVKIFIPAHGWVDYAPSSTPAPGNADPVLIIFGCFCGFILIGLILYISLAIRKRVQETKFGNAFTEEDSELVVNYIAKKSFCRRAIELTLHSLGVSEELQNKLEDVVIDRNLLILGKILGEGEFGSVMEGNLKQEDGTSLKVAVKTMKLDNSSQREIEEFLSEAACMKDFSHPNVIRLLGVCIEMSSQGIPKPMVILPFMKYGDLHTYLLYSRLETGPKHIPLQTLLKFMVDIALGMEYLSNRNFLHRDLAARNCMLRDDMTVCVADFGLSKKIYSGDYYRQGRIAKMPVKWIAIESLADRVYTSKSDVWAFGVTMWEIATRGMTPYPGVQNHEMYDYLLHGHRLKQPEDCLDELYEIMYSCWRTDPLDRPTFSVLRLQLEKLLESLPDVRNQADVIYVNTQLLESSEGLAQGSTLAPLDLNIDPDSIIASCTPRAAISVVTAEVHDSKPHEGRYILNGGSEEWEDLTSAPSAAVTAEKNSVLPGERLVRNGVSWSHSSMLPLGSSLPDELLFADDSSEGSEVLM

EPHB2 = EPHB2 (UniProt P29323); assay: as above
EPHB1 = EPHB1 (UniProt P54762); assay: as above
Jak2 = Jak2 (UniProt O60674); assay: as above
Jak2, sequence (O60674 whole entry, looked up): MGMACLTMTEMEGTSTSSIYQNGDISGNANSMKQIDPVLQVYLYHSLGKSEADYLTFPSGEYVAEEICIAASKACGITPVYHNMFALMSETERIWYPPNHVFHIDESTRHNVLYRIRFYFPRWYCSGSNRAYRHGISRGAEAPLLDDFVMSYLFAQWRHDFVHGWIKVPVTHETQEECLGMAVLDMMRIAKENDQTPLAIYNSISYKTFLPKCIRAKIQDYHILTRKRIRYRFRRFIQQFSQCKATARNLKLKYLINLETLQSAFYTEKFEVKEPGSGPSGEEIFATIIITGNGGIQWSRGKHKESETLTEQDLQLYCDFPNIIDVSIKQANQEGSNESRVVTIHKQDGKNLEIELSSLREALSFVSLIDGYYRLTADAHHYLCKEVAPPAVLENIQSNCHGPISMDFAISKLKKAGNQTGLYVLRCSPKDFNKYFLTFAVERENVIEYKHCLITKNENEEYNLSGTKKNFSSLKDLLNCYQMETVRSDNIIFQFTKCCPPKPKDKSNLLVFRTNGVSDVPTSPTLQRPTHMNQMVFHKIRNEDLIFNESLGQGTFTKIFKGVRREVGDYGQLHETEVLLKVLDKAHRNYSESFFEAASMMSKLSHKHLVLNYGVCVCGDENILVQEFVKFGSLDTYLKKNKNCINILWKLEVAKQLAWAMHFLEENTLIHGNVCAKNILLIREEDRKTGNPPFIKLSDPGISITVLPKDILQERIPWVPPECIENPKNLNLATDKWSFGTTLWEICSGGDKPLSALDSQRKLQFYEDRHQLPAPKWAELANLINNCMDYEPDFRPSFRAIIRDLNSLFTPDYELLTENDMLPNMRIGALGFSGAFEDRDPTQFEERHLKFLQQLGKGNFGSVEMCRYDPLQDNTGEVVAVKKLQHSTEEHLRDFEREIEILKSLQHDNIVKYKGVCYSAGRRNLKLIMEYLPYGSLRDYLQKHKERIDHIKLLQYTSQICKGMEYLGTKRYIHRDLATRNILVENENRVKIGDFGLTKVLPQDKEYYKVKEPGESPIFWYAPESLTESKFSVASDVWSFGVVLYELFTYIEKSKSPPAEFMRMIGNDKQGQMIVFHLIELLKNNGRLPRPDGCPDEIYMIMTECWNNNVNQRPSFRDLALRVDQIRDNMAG

FGFR3 = FGFR3 (UniProt P22607); assay: as above
Fes = Fes (UniProt P07332); assay: as above
Fes, sequence (P07332 whole entry, looked up): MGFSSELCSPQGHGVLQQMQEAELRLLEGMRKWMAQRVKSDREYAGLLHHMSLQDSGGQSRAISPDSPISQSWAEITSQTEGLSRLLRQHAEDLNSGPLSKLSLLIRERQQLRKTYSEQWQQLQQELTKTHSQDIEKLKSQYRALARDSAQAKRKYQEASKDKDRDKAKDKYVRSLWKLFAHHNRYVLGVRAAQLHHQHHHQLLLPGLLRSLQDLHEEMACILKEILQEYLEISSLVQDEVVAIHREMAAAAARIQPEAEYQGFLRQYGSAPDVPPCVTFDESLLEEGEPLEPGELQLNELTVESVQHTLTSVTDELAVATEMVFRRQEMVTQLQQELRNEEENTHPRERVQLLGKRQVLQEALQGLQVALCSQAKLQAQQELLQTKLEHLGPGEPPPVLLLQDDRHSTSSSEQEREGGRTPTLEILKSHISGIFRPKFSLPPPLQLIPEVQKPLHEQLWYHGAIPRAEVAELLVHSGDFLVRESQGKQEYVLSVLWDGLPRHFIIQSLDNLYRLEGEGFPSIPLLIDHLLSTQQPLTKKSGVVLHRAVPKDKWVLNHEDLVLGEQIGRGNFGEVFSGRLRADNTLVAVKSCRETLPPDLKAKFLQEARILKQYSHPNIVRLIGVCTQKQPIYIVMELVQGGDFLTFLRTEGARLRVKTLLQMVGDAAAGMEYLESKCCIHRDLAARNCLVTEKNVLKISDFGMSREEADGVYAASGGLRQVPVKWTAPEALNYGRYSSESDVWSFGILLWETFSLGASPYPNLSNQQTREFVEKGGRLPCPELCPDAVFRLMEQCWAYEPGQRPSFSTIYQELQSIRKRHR

c-Abl (mouse) = assay: as above
AncSZ = assay: as above
c-Src = assay: as above
Grb2 SH2 = Grb2 SH2 (UniProt P62993); assay: SH2 binding enrichment of the phosphorylated peptide, bacterial display (enrichment ratio); higher = better substrate or ligand; peptides without Tyr show the background
SHP2-C SH2 = assay: as above
c-Src SH2 = assay: as above
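Wherever SH2 binding enrichment of the phosphorylated peptide, bacterial display is given: peptide library displayed on the E. coli surface as eCPX fusions, selected cells deep-sequenced, score is each peptide's frequency after selection divided by its frequency in the input.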
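Wherever phosphorylation enrichment, bacterial display is given: 11-residue human phosphosite peptides and single-mutation variants displayed on the E. coli surface, counted by deep sequencing, each peptide's frequency after selection divided by its frequency in the unselected input library; frequency after pTyr selection over input frequency; kinase dosed for 20-30% of maximal phosphorylation in three min.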

Fyn, sequence (P06241 whole entry, looked up): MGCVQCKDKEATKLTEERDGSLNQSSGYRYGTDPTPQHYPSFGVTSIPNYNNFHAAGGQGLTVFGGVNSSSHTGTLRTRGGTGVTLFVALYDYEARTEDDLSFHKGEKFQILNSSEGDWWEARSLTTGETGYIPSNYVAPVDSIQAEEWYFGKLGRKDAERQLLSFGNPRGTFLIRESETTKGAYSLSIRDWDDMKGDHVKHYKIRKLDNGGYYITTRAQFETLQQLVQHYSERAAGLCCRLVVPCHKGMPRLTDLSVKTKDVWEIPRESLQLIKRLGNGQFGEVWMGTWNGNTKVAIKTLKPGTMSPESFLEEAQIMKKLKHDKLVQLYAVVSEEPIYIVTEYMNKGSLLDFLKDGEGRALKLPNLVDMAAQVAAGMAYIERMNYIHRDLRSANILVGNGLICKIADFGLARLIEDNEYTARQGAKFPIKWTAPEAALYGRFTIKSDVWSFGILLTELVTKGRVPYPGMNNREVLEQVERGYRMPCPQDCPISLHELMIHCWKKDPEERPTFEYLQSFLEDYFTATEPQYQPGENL
Hck, sequence (P08631 whole entry, looked up): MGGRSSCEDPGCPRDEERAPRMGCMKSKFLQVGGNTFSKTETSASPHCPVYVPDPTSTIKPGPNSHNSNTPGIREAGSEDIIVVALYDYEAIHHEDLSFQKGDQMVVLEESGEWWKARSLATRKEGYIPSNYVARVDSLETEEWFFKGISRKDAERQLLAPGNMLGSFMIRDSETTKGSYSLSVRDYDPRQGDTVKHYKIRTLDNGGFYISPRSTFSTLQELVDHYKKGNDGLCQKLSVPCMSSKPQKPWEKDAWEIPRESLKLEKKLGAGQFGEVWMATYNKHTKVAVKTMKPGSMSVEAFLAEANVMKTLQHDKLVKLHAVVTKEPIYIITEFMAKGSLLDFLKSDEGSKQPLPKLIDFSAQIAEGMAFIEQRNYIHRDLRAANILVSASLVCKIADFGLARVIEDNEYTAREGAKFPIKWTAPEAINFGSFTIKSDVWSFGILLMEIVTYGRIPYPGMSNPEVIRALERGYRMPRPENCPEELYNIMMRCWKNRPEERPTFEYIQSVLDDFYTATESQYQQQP

SH2 binding enrichment (Grb2 SH2) | SH2 binding enrichment (SHP2-C SH2) | SH2 binding enrichment (c-Src SH2) | Sequence | phosphorylation enrichment (Fyn) | phosphorylation enrichment (Fer (mouse)) | phosphorylation enrichment (Hck) | phosphorylation enrichment (FGFR1) | phosphorylation enrichment (MERTK) | phosphorylation enrichment (EPHB2) | phosphorylation enrichment (EPHB1) | phosphorylation enrichment (Jak2) | phosphorylation enrichment (FGFR3) | phosphorylation enrichment (Fes) | phosphorylation enrichment (c-Abl (mouse)) | phosphorylation enrichment (AncSZ) | phosphorylation enrichment (c-Src)
0.737 | 0.664 | 0.562 | GDFSRYDEGSG [RECQL5_Y484] | 0.502 | 0.439 | 0.494 | 0.471 | 0.513 | 0.481 | 0.523 | 0.905 | 0.662 | 1.16 | 0.799 | 0.889 | 0.534
0.972 | 0.838 | 0.887 | GEFHVYRHLRW [PRKRIP1_Y82_R87W] | 0.428 | 0.413 | 0.429 | 0.442 | 0.345 | 0.458 | 0.499 | 0.995 | 0.682 | 1.08 | 0.723 | 1 | 0.329
0.651 | 1.59 | 0.718 | GEHSIYSTVNN [CD55_Y266_C267S] | 10.3 | 14.5 | 10.9 | 0.584 | 7.23 | 13 | 9.99 | 0.536 | 0.52 | 1.5 | 6.92 | 0.792 | 7.42
0.822 | 0.734 | 0.454 | GEIQEYGAPLD [ABCC1_Y1508_S1512L] | 0.514 | 0.528 | 0.485 | 0.598 | 0.467 | 0.716 | 0.74 | 1.03 | 0.798 | 1.09 | 0.743 | 1.15 | 0.485
1.12 | 0.851 | 0.667 | GEKKAYVRLAP [RPL23A_Y137] | 0.37 | 0.398 | 0.337 | 0.425 | 0.373 | 0.323 | 0.363 | 0.468 | 0.43 | 0.606 | 0.628 | 0.548 | 0.296
0.752 | 0.679 | 0.649 | GESLTYASTTF [C1orf162_Y120] | 2.25 | 0.52 | 2.68 | 0.401 | 0.574 | 0.644 | 0.5 | 0.505 | 0.408 | 0.551 | 1.19 | 0.592 | 2.63
0.818 | 0.457 | 0.393 | GEVKAYGAGLL [TH_Y419] | 0.363 | 0.319 | 0.404 | 0.453 | 0.342 | 0.459 | 0.309 | 0.498 | 0.371 | 0.503 | 0.451 | 0.497 | 0.342
0.813 | 0.697 | 0.621 | GFDHSYFFIAT [ESD_Y262_YF] | 0.525 | 0.589 | 0.626 | 7.11 | 0.67 | 0.603 | 0.63 | 5.69 | 5.72 | 1.28 | 1.15 | 1.52 | 0.558
0.85 | 0.694 | 0.605 | GFEVVYMTEPI [HSP90AB1_Y512] | 0.557 | 0.403 | 0.668 | 0.625 | 0.405 | 0.537 | 0.527 | 1.4 | 0.879 | 1.34 | 0.693 | 1.37 | 0.8
0.836 | 0.519 | 0.56 | GFQPDYGQPAG [SYP_Y278_YF] | 0.435 | 0.206 | 0.728 | 0.478 | 0.404 | 0.431 | 0.443 | 0.554 | 0.483 | 0.686 | 0.509 | 0.583 | 0.294
0.796 | 0.801 | 0.452 | GFSDPYVKASL [SYT3_Y470] | 0.374 | 0.488 | 0.38 | 0.444 | 0.391 | 0.436 | 0.329 | 0.646 | 0.4 | 0.722 | 0.544 | 0.568 | 0.393
0.96 | 1.03 | 0.626 | GFVEDYRPPFY [ACVRL1_Y421_I417F] | 0.517 | 0.541 | 0.496 | 0.56 | 0.52 | 0.491 | 0.495 | 0.969 | 0.754 | 1.13 | 0.868 | 1.33 | 0.522
0.935 | 0.748 | 0.608 | GGCQEYTGAPY [NAXD_Y85] | 0.525 | 0.524 | 0.577 | 0.627 | 0.409 | 0.587 | 0.636 | 0.83 | 0.843 | 1.06 | 0.699 | 1.35 | 0.52
0.872 | 0.64 | 0.596 | GGDQPYSGAGD [TYRO3_Y828_R824G] | 0.453 | 0.436 | 0.474 | 0.485 | 0.408 | 0.481 | 0.501 | 0.775 | 0.698 | 0.791 | 0.562 | 0.673 | 0.432
0.666 | 0.42 | 0.514 | GGPAGYLRRAS [PKLR_Y38] | 0.636 | 0.377 | 0.458 | 0.405 | 0.528 | 0.398 | 0.406 | 0.529 | 0.442 | 0.678 | 0.671 | 0.717 | 0.429
0.735 | 0.952 | 0.562 | GGSTFYIDTNA [ACTL6A_Y69_P66S_YF] | 0.4 | 0.475 | 0.461 | 0.528 | 0.477 | 0.48 | 0.523 | 1.01 | 0.651 | 0.987 | 0.734 | 0.923 | 0.39

SH2 binding enrichment (Grb2 SH2) | SH2 binding enrichment (SHP2-C SH2) | SH2 binding enrichment (c-Src SH2) | Sequence | phosphorylation enrichment (Fyn) | phosphorylation enrichment (Fer (mouse)) | phosphorylation enrichment (Hck) | phosphorylation enrichment (FGFR1) | phosphorylation enrichment (MERTK) | phosphorylation enrichment (EPHB2) | phosphorylation enrichment (EPHB1) | phosphorylation enrichment (Jak2) | phosphorylation enrichment (FGFR3) | phosphorylation enrichment (Fes) | phosphorylation enrichment (c-Abl (mouse)) | phosphorylation enrichment (AncSZ) | phosphorylation enrichment (c-Src)
0.719 | 0.464 | 0.49 | GIMEEYQLPFF [BMPR1A_Y453_V450M_YF] | 1.2 | 0.587 | 0.676 | 1.7 | 0.499 | 0.914 | 0.648 | 1.09 | 1.32 | 1.11 | 2.27 | 4.83 | 0.894
0.731 | 0.813 | 0.466 | GIVEDYRPPFY [ACVRL1_Y421] | 0.49 | 0.457 | 0.427 | 0.445 | 0.406 | 0.502 | 0.522 | 0.831 | 0.633 | 0.942 | 0.735 | 0.981 | 0.434
0.726 | 0.738 | 0.353 | GIVEDYRPPVF [ACVRL1_Y421_F425V_YF] | 0.455 | 0.422 | 0.39 | 0.414 | 0.445 | 0.46 | 0.372 | 0.625 | 0.51 | 0.777 | 0.63 | 0.767 | 0.414
1.23 | 1.05 | 0.982 | GIVKAYYVHAR [AIPL1_Y267_R270H] | 0.418 | 0.452 | 0.412 | 0.482 | 0.436 | 0.51 | 0.498 | 0.866 | 0.514 | 0.736 | 0.569 | 0.732 | 0.538
0.947 | 0.956 | 0.688 | GKLIFYDLRGE [KARS1_Y145] | 0.474 | 0.432 | 0.531 | 0.517 | 0.436 | 0.637 | 0.492 | 0.823 | 0.584 | 0.984 | 0.664 | 1.02 | 0.413
0.657 | 0.715 | 0.415 | GKMSQYLESMQ [CYB5R3_Y130] | 0.457 | 0.373 | 0.494 | 0.444 | 0.435 | 0.454 | 0.336 | 0.539 | 0.426 | 0.583 | 0.548 | 0.646 | 0.517
0.873 | 0.671 | 1.1 | GLAKEYTDPET [CSNK1G2_Y195_I196T] | 0.634 | 0.398 | 0.579 | 0.323 | 0.473 | 0.736 | 0.494 | 1.9 | 0.92 | 1.07 | 0.662 | 1.28 | 0.339
0.895 | 0.689 | 0.797 | GLCSFYETSKM [MAGED2_Y449_R446C_YF] | 0.652 | 1.95 | 0.794 | 0.568 | 0.706 | 0.903 | 0.71 | 1.34 | 0.931 | 1.45 | 0.82 | 1.4 | 0.83
0.688 | 0.722 | 0.474 | GMEIVYVYVKK [DNAI2_Y5] | 0.545 | 0.545 | 0.899 | 0.967 | 0.416 | 0.665 | 0.731 | 0.964 | 1.1 | 1.23 | 0.813 | 1.24 | 0.632
0.598 | 0.417 | 0.392 | GMSQAYSSSQR [DES_Y5] | 0.309 | 0.354 | 0.325 | 0.32 | 0.337 | 0.321 | 0.379 | 0.477 | 0.382 | 0.685 | 0.475 | 0.466 | 0.37
1.23 | 1.4 | 0.915 | GMTLSYLFREP [NDUFS8_Y74] | 0.397 | 0.367 | 0.509 | 0.606 | 0.365 | 0.579 | 0.501 | 0.848 | 0.633 | 0.877 | 0.652 | 0.763 | 0.505
0.832 | 0.592 | 4.46 | GNFSGYDDAWD [POLR1C_Y36_YF] | 0.454 | 0.479 | 0.461 | 0.428 | 0.48 | 0.568 | 0.574 | 1.28 | 0.731 | 1.43 | 1.03 | 1.14 | 0.584
0.771 | 0.863 | 1.09 | GPGGDYAAMGA [ERBB3_Y1276] | 0.414 | 0.488 | 0.527 | 0.776 | 0.511 | 0.903 | 1.3 | 0.604 | 0.605 | 0.766 | 0.572 | 0.6 | 0.494
0.654 | 0.724 | 0.536 | GPQGVYSNKLV [PTPN14_Y506] | 0.633 | 0.407 | 0.588 | 0.472 | 0.519 | 0.502 | 0.417 | 0.544 | 0.51 | 0.642 | 0.537 | 0.568 | 0.636
0.8 | 0.632 | 0.505 | GQDLLYEDEDL [PACS1_Y303_F302L] | 0.674 | 2.38 | 0.626 | 0.559 | 0.595 | 0.733 | 0.812 | 1.18 | 0.889 | 1.43 | 0.855 | 1.6 | 0.613
1.08 | 0.596 | 0.524 | GREFIYVDPMQ [PDGFRA_Y574_H570R_YF] | 0.906 | 0.589 | 1.2 | 7.2 | 2 | 5.79 | 3.28 | 0.703 | 4.31 | 0.729 | 3.31 | 1.03 | 1.36

Sequence | SH2 binding enrichment (Grb2 SH2) | SH2 binding enrichment (SHP2-C SH2) | SH2 binding enrichment (c-Src SH2) | phosphorylation enrichment (Fyn) | phosphorylation enrichment (Fer (mouse)) | phosphorylation enrichment (Hck) | phosphorylation enrichment (FGFR1) | phosphorylation enrichment (MERTK) | phosphorylation enrichment (EPHB2) | phosphorylation enrichment (EPHB1) | phosphorylation enrichment (Jak2) | phosphorylation enrichment (FGFR3) | phosphorylation enrichment (Fes) | phosphorylation enrichment (c-Abl (mouse)) | phosphorylation enrichment (AncSZ) | phosphorylation enrichment (c-Src)
GKSDPYHATSG [GJA1_Y247] | 0.761 | 0.588 | 0.518 | 0.386 | 0.381 | 0.365 | 0.346 | 0.354 | 0.349 | 0.355 | 0.519 | 0.402 | 0.508 | 0.527 | 0.426 | 0.404
